Reference: patent US10358467B2, “Therapeutic targets for cancer progression” (The Regents of the University of California, priority 2015, dated 2019)
Each block holds one molecule with its values, some of them ahead of it.

How the values were obtained:
Akt = Akt phosphorylation (pAkt S473) immunoblot in HeLa cells; assay type: cell-based; details: 10 μM, 6 h, DAPLE-depleted HeLa cells transfected with myc-DAPLE WT
Method: For immunoblotting, protein samples were separated by SDS-PAGE and transferred to PVDF membranes (Millipore). Membranes were blocked with PBS supplemented with 5% nonfat milk (or with 5% BSA when probing for phosphorylated proteins) before incubation with primary antibodies. Infrared imaging with two-color detection and band densitometry quantifications were performed using a Li-Cor Odyssey imaging system exactly as done previously (Garcia-Marcos et al, 2011a; Garcia-Marcos et al, 2010; Garcia-Marcos et al, 2012; Garcia-Marcos et al, 2011b; Ghosh et al, 2010). All Odyssey images were processed using Image J software (NIH) and assembled into figure panels using Photoshop and Illustrator software (Adobe).

Rac1 = Rac1 activity pulldown assay with GST-PBD in HeLa cells; assay type: cell-based; details: 10 μM, 6 h, DAPLE-depleted HeLa cells transfected with myc-DAPLE WT
Method: Rac1 activity in HeLa cells lines was monitored using GST-tagged PAK1-binding domain (PBD; pGEX-PBD) as described previously (Benard & Bokoch, 2002). Briefly, Escherichia coli strain BL21 bacteria transformed with pGEX-PBD were grown at 37° C. and GST-PBD expression was induced at OD600 with 1 mM IPTG for 3 h at 37° C. with shaking. Bacterial lysates were prepared as described above in protein purification section, cleared of debris by centrifugation and subsequently aliquots of lysates were stored at −80° C. until use. Aliquots of bacterial lysates were thawed, cleared of precipitated proteins by centrifugation at 14,000×g for 20 min, and the cleared supernatant was subsequently incubated with glutathione beads overnight at 4° C. with constant tumbling to prepare purified bead-bound GST-PBD freshly for each assay.
To analyze the role of DAPLE in regulation of Rac1 activity HeLa cells were used. For assays done on cells at steady-state, cells were maintained overnight in a media containing 2% or 0.2% FBS prior to lysis. […]

Gαi1 = biological target: T1, Gαi1 (Rattus norvegicus, UniProt P10824); assay: GST pulldown of His-DAPLE-CT with GST-Gαi1; assay type: binding
T1 construct: made in house; host or cells: E. coli BL21 (DE3)

[1] = biological target: T2, GST-Gαi3·Gβγ preformed complexes (Rattus norvegicus, UniProt P08753); assay: Gβγ displacement assay; assay type: binding; details: 0.05-1 μM WT or 1 μM F1675A
T2 construct: made in house; host or cells: E. coli BL21 (DE3) for GST-Gαi3; Gβγ endogenous from HEK293T lysate
Method: This assay was performed as described previously (Garcia-Marcos et al, 2009). Briefly, GST alone or GST-Gαi3 proteins immobilized on glutathione-agarose beads were incubated overnight at 4° C. with HEK293T cell lysates in binding buffer [50 mM Tris-HCl, pH 7.4, 100 mM NaCl, 0.4% (v:v) NP-40, 10 mM MgCl2, 5 mM EDTA, 2 mM DTT, protease inhibitor cocktail supplemented with 30 μM GDP]. Unbound Gβγ-subunits were washed twice with the same buffer and proteins bound to the glutathione-agarose beads divided into equal aliquots containing ˜5 μg (˜0.4 μM) GST-fusion proteins. Aliquots were incubated with increasing concentrations (0.05-1 μM) of purified His-DAPLE-CT (1650-2028) wild-type or 1 μM His-DAPLE-CT F1675A in binding buffer supplemented with GDP (˜200 μl) for 5 h at 4° C. Glutathione-agarose beads were washed and bound proteins eluted by boiling in Laemmli sample buffer and separated by SDS-PAGE.

His-Gαi3 [2] = biological target: T3, His-Gαi3 (Rattus norvegicus, UniProt P08753); assay: GTPγS binding assay; assay type: biochemical; details: 0-2 μM, 15 min
T3 construct: His; made in house; host or cells: E. coli BL21 (DE3)
Method: GTPγS binding was measured using a filter binding method as described previously (Garcia-Marcos et al, 2010; Garcia-Marcos et al, 2011b). His-Gαi3 (100 nM) was preincubated with different concentrations of His-DAPLE-CT (aa 1650-2028) for 15 min at 30° C. in assay buffer [20 mM Na-HEPES, pH 8, 100 mM NaCl, 1 mM EDTA, 25 mM MgCl2, 1 mM DTT, 0.05% (w:v) C12E10]. Reactions were initiated at 30° C. by adding an equal volume of assay buffer containing 1 μM [^35S] GTPγS (˜50 c.p.m/fmol). Duplicate aliquots (25 μl) were removed at different time points, and binding of radioactive nucleotide was stopped by addition of 3 ml, ice-cold wash buffer (20 mM Tris-HCl, pH 8.0, 100 mM NaCl, 25 mM MgCl2). The quenched reactions were rapidly passed through BA-85 nitrocellulose filters (GE Healthcare) and washed with 4 ml wash buffer. Filters were dried and subjected to liquid scintillation counting. To determine the specific nucleotide binding, the background [^35S]GTPγS detected in the absence of G protein was subtracted from each reaction and data expressed as percentage of the [^35S] GTPγS bound by His-Gαi3 in the absence of His-DAPLE-CT.

Gαi3 = biological target: T4, Gαi3 (Rattus norvegicus, UniProt P08753); assay: GST pulldown of His-DAPLE-CT with GST-Gαi3; assay type: binding
T4 construct: made in house; host or cells: E. coli BL21 (DE3)
Method: Purified GST-Gαi3 or GST alone (5 μg) were immobilized on glutathione-Sepharose beads and incubated with binding buffer [50 mM Tris-HCl (pH 7.4), 100 mM NaCl, 0.4% (v:v) Nonidet P-40, 10 mM MgCl2, 5 mM EDTA, 30 μM GDP, 2 mM DTT, protease inhibitor mixture] for 90 min at room temperature as described before (Garcia-Marcos et al, 2011a; Ghosh et al, 2010; Ghosh et al, 2008; Lin et al, 2011). Lysates (˜250 μg) of Cos7 cells expressing appropriate myc-DAPLE constructs or purified His-DAPLE-CT (aa 1650-2028) protein (3 μg) were added to each tube, and binding reactions were carried out for 4 h at 4° C. with constant tumbling in binding buffer [50 mM Tris-HCl (pH 7.4), 100 mM NaCl, 0.4% (v:v) Nonidet P-40, 10 mM MgCl2, 5 mM EDTA, 30 μM GDP, 2 mM DTT]. Beads were washed (4×) with 1 mL of wash buffer [4.3 mM Na2HPO4, 1.4 mM KH2PO4 (pH 7.4), 137 mM NaCl, 2.7 mM KCl, 0.1% (v:v) Tween 20, 10 mM MgCl2, 5 mM EDTA, 30 μM GDP, 2 mM DTT] and boiled in Laemmli's sample buffer. In some experiments the ‘active’ conformation of the G protein was stabilized by replacing GDP in the binding and wash buffers with 30 μM GTPγS or a mixture of 30 μM GDP/30 μM AlCl3/10 mM NaF. Immunoblot quantification was performed by infrared imaging following the manufacturer's protocols using an Odyssey imaging system (Li-Cor Biosciences).

GST-FZD7R-CT = biological target: T5, GST-FZD7R-CT (Homo sapiens, UniProt O75084); assay: GST-FZD7-CT pulldown of His-Gαi3; assay type: binding; details: His-Gαi3 preloaded with GDP, in the presence of DAPLE-CT
T5 construct: the GST-tagged cytoplasmic tail of FZD7R; made in house; host or cells: bacteria (E. coli BL21 (DE3)); plasmid a gift of R. Yao
Method: GST-FZD7-CT and GST-PBD constructs were immobilized on glutathione-Sepharose beads directly from bacterial lysates by overnight incubation at 4° C. with constant tumbling. Next morning, GST-FZD7-CT immobilized on glutathione beads were washed and subsequently incubated with His-tagged DAPLE-CT or Gαi3 proteins at 4° C. with constant tumbling. Washes and immunoblotting were performed as previously.

Gαi2 = biological target: T6, Gαi2 (Rattus norvegicus, UniProt P04897); assay: GST pulldown of His-DAPLE-CT with GST-Gαi2; assay type: binding; details: compared to Gαi1 and Gαi3
T6 construct: made in house; host or cells: E. coli BL21 (DE3)

His-Gαi3 [3] = biological target: T3, His-Gαi3; assay: Steady-state GTPase assay; assay type: biochemical; details: in vitro assays
Method: Under the experimental conditions of steady-state GTPase assays, GTP hydrolysis occurs as a two-step reaction, i.e., 1) GDP is released from the G protein and exchanged for GTP, and 2) the GTP loaded is hydrolyzed. Nucleotide exchange is the rate limiting step in this process because it is ˜50-100 times slower than GTP hydrolysis by Gαi subunits (Mukhopadhyay & Ross, 2002). Thus, the steady-state GTPase activity reflects the rate of nucleotide exchange, and was performed as described previously (Garcia-Marcos et al, 2010; Garcia-Marcos et al, 2012; Garcia-Marcos et al, 2011b). Briefly, His-Gαi3 (100 nM) was preincubated with different concentrations of His-DAPLE-CT (aa 1650-2028) for 15 min at 30° C. in assay buffer [20 mM Na-HEPES, pH 8, 100 mM NaCl, 1 mM EDTA, 2 mM MgCl2, 1 mM DTT, 0.05% (w:v) C12E10]. GTPase reactions were initiated at 30° C. by adding an equal volume of assay buffer containing 1 μM [γ-^32P]GTP (˜50 c.p.m/fmol). […] Samples were then centrifuged for 10 min at 10,000×g, and 500 μl of the resultant supernatant were scintillation counted to quantify released [^32P]Pi. For the time course experiments, data was expressed as raw c.p.m. For the dose-dependence curve experiments, the background [^32P]Pi detected at 15 min in the absence of G protein was subtracted from each reaction and data expressed as percentage of the Pi produced by His-Gαi3 in the absence of His-DAPLE-CT.

Gαo = biological target: T7, Gαo (Rattus norvegicus, UniProt P59215); assay: GST pulldown of His-DAPLE-CT with GST-Gαo; assay type: binding
T7 construct: made in house; host or cells: E. coli BL21 (DE3)
T7 sequence (P59215 whole entry): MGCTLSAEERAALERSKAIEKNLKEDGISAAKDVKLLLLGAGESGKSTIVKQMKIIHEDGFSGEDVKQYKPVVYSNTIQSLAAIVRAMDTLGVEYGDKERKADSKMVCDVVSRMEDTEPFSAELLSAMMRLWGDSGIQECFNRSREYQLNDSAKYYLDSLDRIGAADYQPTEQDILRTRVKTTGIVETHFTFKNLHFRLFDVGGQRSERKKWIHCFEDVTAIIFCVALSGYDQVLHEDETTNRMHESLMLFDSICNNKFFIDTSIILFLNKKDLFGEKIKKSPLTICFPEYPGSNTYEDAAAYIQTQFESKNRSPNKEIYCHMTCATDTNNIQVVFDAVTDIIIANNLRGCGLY

T6 sequence (P04897 whole entry): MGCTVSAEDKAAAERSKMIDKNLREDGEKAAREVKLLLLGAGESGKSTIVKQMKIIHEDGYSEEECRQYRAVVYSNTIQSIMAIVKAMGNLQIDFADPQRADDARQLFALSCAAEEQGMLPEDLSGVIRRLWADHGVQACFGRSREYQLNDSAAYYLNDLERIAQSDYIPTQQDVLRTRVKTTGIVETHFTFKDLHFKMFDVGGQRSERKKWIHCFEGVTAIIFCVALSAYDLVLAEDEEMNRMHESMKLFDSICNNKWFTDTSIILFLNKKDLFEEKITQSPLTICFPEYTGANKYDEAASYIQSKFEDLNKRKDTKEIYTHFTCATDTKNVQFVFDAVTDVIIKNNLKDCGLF
T1 sequence (P10824 whole entry): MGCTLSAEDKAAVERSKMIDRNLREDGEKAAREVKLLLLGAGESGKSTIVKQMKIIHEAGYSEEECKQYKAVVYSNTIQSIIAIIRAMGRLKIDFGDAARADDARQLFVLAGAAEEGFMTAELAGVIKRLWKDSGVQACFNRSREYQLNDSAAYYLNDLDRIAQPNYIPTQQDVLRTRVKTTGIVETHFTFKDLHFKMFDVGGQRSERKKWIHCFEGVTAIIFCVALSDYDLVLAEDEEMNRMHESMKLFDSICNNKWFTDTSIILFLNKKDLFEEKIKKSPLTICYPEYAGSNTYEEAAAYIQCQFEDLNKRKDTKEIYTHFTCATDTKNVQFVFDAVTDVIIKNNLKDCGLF

Molecule: O=C1OC2(c3ccccc31)c1ccc(O)c(O)c1Oc1c2ccc(O)c1O [Gallein]
Akt activity (Akt): effectively inhibited
Rac1 activity (Rac1): effectively inhibited

binding to Gαi1 (Gαi1): interacts
displacement of Gβγ from pre-assembled complex with GST-Gαi3 [1]: displaced
binding to Gαi3 (Gαi3): interacts
increase of Gαi3 binding to GST-FZD7R-CT (GST-FZD7R-CT): ~5 fold
binding to Gαi2 (Gαi2): partially reduced
GEF activity, activation of nucleotide exchange (His-Gαi3 [3]): 2.5-3 fold
binding to Gαo (Gαo): not with Gαo
B1: His-DAPLE-CT: purified His-tagged DAPLE C-terminus (aa 1650-2028, containing the GBA motif) (protein, listed as Homo sapiens)
chain: GTAPPYVGVRPCSASPSSEMVTLEEFLEESNRSSPTHDTPSCRDDLLSDYFRKASDPPAIGGQPGPPAKKEGAKMPTNFVAPTVKMAAPTSEGRPLKPGQYVKPNFRLTEAEAPPSVAPRQAQPPQSLSLGRPRQAPVPPASHAPASRSASLSRAFSLASADLLRASGPEACKQESPQKLGAPEALGGRETGSHTLQSPAPPSSHSLARERTPLVGKAGSSCQGPGPRSRPLDTRRFSLAPPKEERLAPLHQSATAPAIATAGAGAAAAGSGSNSQLLHFSPAAAPAARTKPKAPPRSGEVATITPVRAGLSLSEGDGVPGQGCSEGLPAKSPGRSPDLAPHLGRALEDCSRGSVSKSSPASPEPGGDPQTVWYEYGCV
modifications: His tag
initial rate of nucleotide (GTPγS) binding by His-Gαi3 (His-Gαi3 [2]): increased
